# Test results reported in paper PMC11363339, “Structural Basis for Methine Excision by a Heme Oxygenase-like Enzyme” (ACS Central Science, 2024).
# B1: FlcD without a His6-tag (FlcD_(tagless)) (enzyme, Pseudomonas aeruginosa)
# chain: MNTRNFSLPQLQNLPIEEARIVADALAVHATSRQIDSAASKLAALAEAGLKGDRQAYAAYQQLLYVLSLSDDVATAQTRRWLARAIYRVEERFMPAADLSRALSEEDFQKRLEQEIAAQSRERHPMSQYVFSGSASRAQLQVFLRHQWFRTFRLYRDAADLLVNLTDVDEAAALARYLYGELGEEDEKGSHPRLLAKLLEAIGLEADFQAVSTMPEEIAYLNNRARAFRHAEVGWGLAVFYITELVVPGNHEKLYRALLQAGLSEDQAEYYKVHISLVPPRAKREWQLIARRIPDVQFQNAFLTSLSQHFRVERAYYDAIWEEMQSVK
# notes: FlcD, heme oxygenase-like domain-containing oxidase (HDO) of Pseudomonas aeruginosa, without a His6-tag; see the Supporting Information PDF
# Target: the molecule itself
# Experiment: SEC-MALS; size exclusion chromatography coupled with multiangle light scattering on FlcD without a His6-tag
protein,measurement,value
B1,stoichiometry N,2
